{
  "source": "paper PMC11063116",
  "proteins": {"B1": {"name": "BvHSS (homospermidine synthase) (Blastochloris viridis) (protein)", "chain": "MTDWPVYHRIDGPIVMIGFGSIGRGTLPLIERHFAFDRSKLVVIDPSDEARKLAEARGVRFIQQAVTRDNYRELLVPLLTAGPGQGFCVNLSVDTSSLDIMELARENGALYIDTVVEPWLGFYFDPDLKPEARSNYALRETVLAARRNKPGGTTAVSCCGANPGMVSWFVKQALVNLAADLGVTGEEPTTREEWARLAMDLGVKGIHIAERDTQRASFPKPFDVFVNTWSVEGFVSEGLQPAELGWGTFERWMPDNARGHDSGCGAGIYLLQPGANTRVRSWTPTAMAQYGFLVTHNESISIADFLTVRDAAGQAVYRPTCHYAYHPCNDAVLSLHEMFGSGKRQSDWRILDETEIVDGIDELGVLLYGHGKNAYWYGSQLSIEETRRIAPDQNATGLQVSSAVLAGMVWALENPNAGIVEADDLDFRRCLEVQTPYLGPVVGVYTDWTPLAGRPGLFPEDIDTSDPWQFRNVLVRD"}, "B2": {"name": "BvHSS (homospermidine synthase) (Blastochloris viridis; D361E/E232D) (protein)", "chain": "MTDWPVYHRIDGPIVMIGFGSIGRGTLPLIERHFAFDRSKLVVIDPSDEARKLAEARGVRFIQQAVTRDNYRELLVPLLTAGPGQGFCVNLSVDTSSLDIMELARENGALYIDTVVEPWLGFYFDPDLKPEARSNYALRETVLAARRNKPGGTTAVSCCGANPGMVSWFVKQALVNLAADLGVTGEEPTTREEWARLAMDLGVKGIHIAERDTQRASFPKPFDVFVNTWSVDGFVSEGLQPAELGWGTFERWMPDNARGHDSGCGAGIYLLQPGANTRVRSWTPTAMAQYGFLVTHNESISIADFLTVRDAAGQAVYRPTCHYAYHPCNDAVLSLHEMFGSGKRQSDWRILDETEIVDGIEELGVLLYGHGKNAYWYGSQLSIEETRRIAPDQNATGLQVSSAVLAGMVWALENPNAGIVEADDLDFRRCLEVQTPYLGPVVGVYTDWTPLAGRPGLFPEDIDTSDPWQFRNVLVRD"}, "B3": {"name": "BvHSS (homospermidine synthase) (Blastochloris viridis; D361E) (protein)", "chain": "MTDWPVYHRIDGPIVMIGFGSIGRGTLPLIERHFAFDRSKLVVIDPSDEARKLAEARGVRFIQQAVTRDNYRELLVPLLTAGPGQGFCVNLSVDTSSLDIMELARENGALYIDTVVEPWLGFYFDPDLKPEARSNYALRETVLAARRNKPGGTTAVSCCGANPGMVSWFVKQALVNLAADLGVTGEEPTTREEWARLAMDLGVKGIHIAERDTQRASFPKPFDVFVNTWSVEGFVSEGLQPAELGWGTFERWMPDNARGHDSGCGAGIYLLQPGANTRVRSWTPTAMAQYGFLVTHNESISIADFLTVRDAAGQAVYRPTCHYAYHPCNDAVLSLHEMFGSGKRQSDWRILDETEIVDGIEELGVLLYGHGKNAYWYGSQLSIEETRRIAPDQNATGLQVSSAVLAGMVWALENPNAGIVEADDLDFRRCLEVQTPYLGPVVGVYTDWTPLAGRPGLFPEDIDTSDPWQFRNVLVRD"}},
  "data": [
    {"substrate": "NCCCN", "test": "purified protein", "settings": "2 mM putrescine, 0.6 mM NAD+, 100 mM Tris-HCl pH 9, 50 °C", "units": {"Km": "mM", "kcat": "s⁻¹", "kcat/Km": "M⁻¹ s⁻¹"}, "values": [
      {"protein": "B1", "Km": "0.49 ± 0.03", "kcat": 13.6, "kcat/Km": 27800},
      {"protein": "B2", "Km": "0.31 ± 0.02", "kcat": 21.1, "kcat/Km": 68000},
      {"protein": "B3", "Km": "0.43 ± 0.06", "kcat": 19.3, "kcat/Km": 45000}
    ]}
  ]
}
